Test results taken from the supplement of paper PMC9112550, “Optimization of the antimicrobial peptide Bac7 by deep mutational scanning” (BMC Biology, 2022).

What follows are sequences tested on Escherichia coli TOP10 (assay: shrunken log2 fold change of peptide-encoding DNA abundance (4.5 h post-induction vs induction); higher = less antimicrobial activity (less host growth inhibition)). Conditions: time post-induction: 4.5 h; library: site-saturation at positions 5, 18, 19, 20.
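Note: peptides expressed intracellularly from a pBAD plasmid library in pooled LB shake-flask culture, induced with 0.3% L-arabinose, DNA abundance read by NGS, three biological replicates, DESeq2 with apeglm shrinkage.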

Going from RRIRTRPPRLPRPRPRPNDFPRP to RRIRGRPPRLPRPRPRPMDKPRP, the “shrunken log2 fold change” value rises from -0.205 to 0.378.

RRIRARPPRLPRPRPRPCELPRP and RRIRNRPPRLPRPRPRPAFFPRP are within 0.2 log units of each other in “shrunken log2 fold change” value: 0.105 for the first, 0.0459 for the second.

RRIRDRPPRLPRPRPRPQIIPRP and RRIRSRPPRLPRPRPRPHRAPRP are within 0.2 log units of each other in “shrunken log2 fold change” value: 0.0399 for the first, 0.0729 for the second.

RRIRYRPPRLPRPRPRPDTFPRP and RRIRNRPPRLPRPRPRPWTDPRP are within 0.2 log units of each other in “shrunken log2 fold change” value: -0.016 for the first, 0.0246 for the second.

Going from RRIRDRPPRLPRPRPRPFPWPRP to RRIRDRPPRLPRPRPRPKSRPRP, the “shrunken log2 fold change” value rises from -0.192 to 0.0765.

Going from RRIRFRPPRLPRPRPRPQTCPRP to RRIRGRPPRLPRPRPRPCCRPRP, the “shrunken log2 fold change” value rises from -0.31 to 0.918.

RRIRTRPPRLPRPRPRPHDHPRP and RRIRSRPPRLPRPRPRPPSSPRP are within 0.2 log units of each other in “shrunken log2 fold change” value: -0.257 for the first, -0.0711 for the second.

First: RRIRFRPPRLPRPRPRPMPKPRP
Second: RRIRARPPRLPRPRPRPIRYPRP
The “shrunken log2 fold change” value of the first is higher: 0.856 for the first, -0.263 for the second.

RRIRLRPPRLPRPRPRPIRVPRP and RRIRQRPPRLPRPRPRPIKVPRP are within 0.2 log units of each other in “shrunken log2 fold change” value: 0.101 for the first, 0.0441 for the second.

Going from RRIRARPPRLPRPRPRPYLNPRP to RRIRTRPPRLPRPRPRPPWKPRP, the “shrunken log2 fold change” value rises from -0.914 to -0.107.

RRIRVRPPRLPRPRPRPLDHPRP and RRIRERPPRLPRPRPRPQKDPRP are within 0.2 log units of each other in “shrunken log2 fold change” value: -0.194 for the first, -0.298 for the second.

Compared with RRIRSRPPRLPRPRPRPRPCPRP, RRIRWRPPRLPRPRPRPFWWPRP is higher in “shrunken log2 fold change” value: 0.137 for the first, 0.402 for the second.

RRIRDRPPRLPRPRPRPLLWPRP and RRIRKRPPRLPRPRPRPRGGPRP are within 0.2 log units of each other in “shrunken log2 fold change” value: 0.754 for the first, 0.848 for the second.

Going from RRIRQRPPRLPRPRPRPCIMPRP to RRIRMRPPRLPRPRPRPTTQPRP, the “shrunken log2 fold change” value rises from -0.748 to 0.081.

Compared with RRIRGRPPRLPRPRPRPMQLPRP, RRIRIRPPRLPRPRPRPDKWPRP is lower in “shrunken log2 fold change” value: 0.539 for the first, -0.318 for the second.

Going from RRIRFRPPRLPRPRPRPRNFPRP to RRIRNRPPRLPRPRPRPRYTPRP, the “shrunken log2 fold change” value falls from -0.0477 to -0.56.

First: RRIRYRPPRLPRPRPRPATSPRP
Second: RRIRDRPPRLPRPRPRPQIAPRP
The “shrunken log2 fold change” value of the first is lower: -0.452 for the first, 0.0211 for the second.

Going from RRIRLRPPRLPRPRPRPHEIPRP to RRIRLRPPRLPRPRPRPIQKPRP, the “shrunken log2 fold change” value rises from -0.298 to 0.0625.

First: RRIRCRPPRLPRPRPRPHYEPRP
Second: RRIRPRPPRLPRPRPRPEPAPRP
The “shrunken log2 fold change” value of the first is lower: -0.442 for the first, 0.572 for the second.

First: RRIRPRPPRLPRPRPRPHESPRP
Second: RRIRMRPPRLPRPRPRPGAEPRP
The “shrunken log2 fold change” value of the first is lower: 0.0891 for the first, 3.05 for the second.

RRIRERPPRLPRPRPRPHAQPRP and RRIRDRPPRLPRPRPRPYWTPRP are within 0.2 log units of each other in “shrunken log2 fold change” value: -0.0243 for the first, -0.195 for the second.

Compared with RRIRTRPPRLPRPRPRPAPCPRP, RRIRARPPRLPRPRPRPNIMPRP is lower in “shrunken log2 fold change” value: 0.18 for the first, -0.266 for the second.

Going from RRIRQRPPRLPRPRPRPRLMPRP to RRIRQRPPRLPRPRPRPRQMPRP, the “shrunken log2 fold change” value rises from 0.00478 to 0.297.

Going from RRIRRRPPRLPRPRPRPPMHPRP to RRIRMRPPRLPRPRPRPTEYPRP, the “shrunken log2 fold change” value falls from 0.693 to -0.289.

Compared with RRIRKRPPRLPRPRPRPKVKPRP, RRIRLRPPRLPRPRPRPWCEPRP is lower in “shrunken log2 fold change” value: 0.116 for the first, -0.271 for the second.

First: RRIRKRPPRLPRPRPRPQYRPRP
Second: RRIRRRPPRLPRPRPRPHFWPRP
The “shrunken log2 fold change” value of the first is lower: -0.185 for the first, 0.51 for the second.

RRIRGRPPRLPRPRPRPYVYPRP and RRIRIRPPRLPRPRPRPHNCPRP are within 0.2 log units of each other in “shrunken log2 fold change” value: -0.0911 for the first, -0.0359 for the second.

Going from RRIRYRPPRLPRPRPRPKNLPRP to RRIRDRPPRLPRPRPRPHLHPRP, the “shrunken log2 fold change” value rises from -0.36 to -0.0995.

RRIRVRPPRLPRPRPRPLLEPRP and RRIRHRPPRLPRPRPRPHSFPRP are within 0.2 log units of each other in “shrunken log2 fold change” value: 0.0931 for the first, -0.0282 for the second.

Going from RRIRFRPPRLPRPRPRPMWDPRP to RRIRKRPPRLPRPRPRPCEHPRP, the “shrunken log2 fold change” value rises from -0.469 to 0.015.

Going from RRIRSRPPRLPRPRPRPKEDPRP to RRIRSRPPRLPRPRPRPFWPPRP, the “shrunken log2 fold change” value falls from 1.6 to 0.315.

Compared with RRIRYRPPRLPRPRPRPHKYPRP, RRIRNRPPRLPRPRPRPTESPRP is higher in “shrunken log2 fold change” value: -1.08 for the first, -0.0455 for the second.

First: RRIRPRPPRLPRPRPRPVGEPRP
Second: RRIRGRPPRLPRPRPRPDAPPRP
The “shrunken log2 fold change” value of the first is lower: 0.415 for the first, 1.9 for the second.

Compared with RRIRHRPPRLPRPRPRPQQYPRP, RRIRTRPPRLPRPRPRPAEHPRP is higher in “shrunken log2 fold change” value: -0.706 for the first, -0.0944 for the second.

First: RRIRTRPPRLPRPRPRPSTCPRP
Second: RRIRWRPPRLPRPRPRPRPNPRP
The “shrunken log2 fold change” value of the first is lower: -0.175 for the first, 0.273 for the second.

RRIRGRPPRLPRPRPRPDWRPRP and RRIRKRPPRLPRPRPRPTADPRP are within 0.2 log units of each other in “shrunken log2 fold change” value: 0.404 for the first, 0.345 for the second.

RRIRPRPPRLPRPRPRPKCRPRP and RRIRTRPPRLPRPRPRPEWEPRP are within 0.2 log units of each other in “shrunken log2 fold change” value: 0.00849 for the first, 0.0583 for the second.

With RRIRWRPPRLPRPRPRPRCYPRP the “shrunken log2 fold change” value was -0.0698.
